Assay [1] has as its target Corynebacterium ammoniagenes fatty-acid synthase type I (C. ammoniagenes). Briefly: SEC; 0.1 M sodium phosphate pH 6.5, 0.1 M NaCl, 5 mM sodium malonate.
In assay [2] the target is Corynebacterium efficiens fatty-acid synthase type I (FAS B) (C. efficiens) (UniProt Q8FMV7). As to the kind of experiment: SEC; Superose 6 XK 16/70; 0.1 M bis-tris propane pH 6.8, 0.2 M NaCl, 10% glycerol.

Turning to “Corynebacterium ammoniagenes fatty-acid synthase type I (enzyme)”, in assay [1], the stoichiometry N – broadly, a count of units in the complex or per binding partner – amounted to 6. With “Corynebacterium efficiens fatty-acid synthase type I (FAS B) (from UniProt Q8FMV7 1-3022) (enzyme)”, the stoichiometry N in assay [2] was 6.

For the origin of these results see publication PMC4631590.
